# Experiments:
# [1] = target: T1, hOX40L added as soluble protein in cell assays (human, UniProt P23510 51-183, limits assumed); experiment: cell-based or functional assay
# T1 sequence: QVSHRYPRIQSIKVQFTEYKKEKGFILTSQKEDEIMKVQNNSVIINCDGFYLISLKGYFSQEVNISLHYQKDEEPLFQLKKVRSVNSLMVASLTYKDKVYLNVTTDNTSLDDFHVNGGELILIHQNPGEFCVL
# [2] = target: human FcRn (human, UniProt P55899 24-297; P61769 21-119); experiment: SPR (Biacore 8K+), antibody captured by anti-human kappa, human FcRn injected, pH 5.8; pH 5.8
# Chain of human FcRn (P55899 24-297 limits assumed, form in doubt, chain 1 of 2): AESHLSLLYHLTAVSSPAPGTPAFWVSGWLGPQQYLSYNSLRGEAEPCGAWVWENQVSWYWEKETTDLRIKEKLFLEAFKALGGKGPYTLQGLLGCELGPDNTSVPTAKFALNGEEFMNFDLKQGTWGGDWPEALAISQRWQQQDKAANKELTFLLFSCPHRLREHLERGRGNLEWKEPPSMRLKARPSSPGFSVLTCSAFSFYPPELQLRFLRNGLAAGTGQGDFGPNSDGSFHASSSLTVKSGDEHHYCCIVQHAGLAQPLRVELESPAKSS
# Chain of human FcRn (P61769 21-119 limits assumed, form in doubt, chain 2 of 2): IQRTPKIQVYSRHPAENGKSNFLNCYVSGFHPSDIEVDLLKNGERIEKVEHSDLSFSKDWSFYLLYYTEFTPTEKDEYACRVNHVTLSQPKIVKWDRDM
# Description: (§1) Briefly, a CM5 Series S sensor chip functionalized with anti-human kappa antibody was used to capture antibodies at 5 μg/mL. […] The chip was regenerated with 10 mM glycine pH 1.5 and 10 mM NaOH between runs.
# [3] = target: T2, Recombinant Cynomolgus OX40L Protein, His Tag (SINO BIOLOGICAL, Cat. 11057-C07H) (cynomolgus, UniProt G7NVH7 51-183); experiment: SPR (Biacore 8K), antibody captured, cynomolgus OX40L injected, 1:1 fit
# T2 construct: Bought protein
# T2 sequence: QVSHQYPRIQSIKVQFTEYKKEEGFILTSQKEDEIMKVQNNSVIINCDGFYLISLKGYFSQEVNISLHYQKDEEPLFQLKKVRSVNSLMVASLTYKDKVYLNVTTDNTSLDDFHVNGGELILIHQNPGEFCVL
# Description: (§2) Samples were injected in a multi-cycle manner over freshly captured mAb, by regenerating the capture surfaces with injection of glycine pH 1.5 for 30 sec at a flow rate of 30 μL/min. The data was processed and analyzed with Biacore Insight Evaluation Software Version 2.0.15.12933 (GE Healthcare) as follows. […] The responses from the two buffer blank injections were then subtracted from the reference subtracted data (2-1) to yield double-referenced data, which were fit to an 1:1 binding model to determine the apparent association (ka) and dissociation rate constants (kd). Their ratio provided the apparent equilibrium dissociation constant or affinity constant (KD=kd/ka).
# [4] = target: T3, hOX40L on hOX40L-expressing CHO cells (human, UniProt P23510 1-183); experiment: flow cytometry on hOX40L-expressing CHO cells, gMFI, nonlinear regression
# T3 construct: also called cell surface OX40L
# T3 sequence: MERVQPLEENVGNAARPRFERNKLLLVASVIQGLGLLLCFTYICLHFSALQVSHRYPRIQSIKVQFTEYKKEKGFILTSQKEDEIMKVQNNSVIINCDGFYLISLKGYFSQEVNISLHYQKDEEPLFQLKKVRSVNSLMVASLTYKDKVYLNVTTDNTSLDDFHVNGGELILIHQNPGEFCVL
# Description: Nonlinear regression was performed on geometric mean fluorescence intensity (gMFI) values to determine EC50 values (FIG. 1, TABLE 8).
# [5] = target: T4, human CD32b (human, UniProt P31994 46-217); experiment: SPR (Biacore 8K+), antibody captured by anti-human IgG Fc, receptor injected
# T4 sequence (looked up): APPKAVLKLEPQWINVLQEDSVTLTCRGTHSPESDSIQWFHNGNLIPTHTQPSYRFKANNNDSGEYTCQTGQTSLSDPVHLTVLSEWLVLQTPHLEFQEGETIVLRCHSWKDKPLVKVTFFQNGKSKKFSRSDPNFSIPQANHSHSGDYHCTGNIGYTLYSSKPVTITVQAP
# Description: (§3) Briefly, a CM5 Series S sensor chip functionalized with anti-human IgG Fc antibody was used to capture antibodies at 5 μg/mL. […] The chip was regenerated with 10 mM glycine pH 1.5 and 10 mM NaOH between runs.
# [6] = target: T5, human CD32a 167R (human, UniProt P12318 36-218); experiment: as above
# T5 construct: numbering not explained
# T5 sequence (looked up): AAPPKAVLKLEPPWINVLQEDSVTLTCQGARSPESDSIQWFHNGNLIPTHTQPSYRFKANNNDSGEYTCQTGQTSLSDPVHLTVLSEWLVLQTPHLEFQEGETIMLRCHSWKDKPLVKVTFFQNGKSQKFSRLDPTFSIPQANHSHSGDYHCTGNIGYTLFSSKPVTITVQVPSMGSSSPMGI
# Description: as §3
# [7] = target: T6, human CD16a 176F (human, UniProt P08637 17-208); experiment: as above
# T6 construct: numbering not explained
# T6 sequence (P08637 17-208 limits assumed): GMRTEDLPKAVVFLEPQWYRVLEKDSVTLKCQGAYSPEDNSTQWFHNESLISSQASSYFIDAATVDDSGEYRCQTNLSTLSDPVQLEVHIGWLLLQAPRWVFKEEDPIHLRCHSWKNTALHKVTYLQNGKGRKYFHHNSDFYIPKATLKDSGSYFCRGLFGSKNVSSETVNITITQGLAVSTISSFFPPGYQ
# Description: as §3
# [8] = target: human CD64 (human, UniProt P12314 16-288); experiment: as above
# Chain of human CD64 (P12314 16-288 limits assumed): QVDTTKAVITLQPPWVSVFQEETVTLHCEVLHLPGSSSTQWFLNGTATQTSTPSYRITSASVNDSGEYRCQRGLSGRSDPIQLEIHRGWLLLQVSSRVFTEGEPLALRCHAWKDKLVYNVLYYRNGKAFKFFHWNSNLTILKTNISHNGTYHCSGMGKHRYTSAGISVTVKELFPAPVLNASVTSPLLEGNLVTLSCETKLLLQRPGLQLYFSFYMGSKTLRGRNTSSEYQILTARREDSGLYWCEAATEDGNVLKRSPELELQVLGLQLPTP
# Description: as §3
# [9] = target: human CD16b (human, UniProt O75015 17-200, limits assumed); experiment: as above
# Chain of human CD16b (O75015 17-200 limits assumed): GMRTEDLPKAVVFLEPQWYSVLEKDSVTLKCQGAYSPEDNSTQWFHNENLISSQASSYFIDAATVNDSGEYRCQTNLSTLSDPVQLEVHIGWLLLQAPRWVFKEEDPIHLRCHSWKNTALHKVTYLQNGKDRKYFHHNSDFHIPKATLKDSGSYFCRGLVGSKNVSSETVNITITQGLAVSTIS
# Description: as §3
# [10] = target: T7, human CD32a 167H (human, UniProt P12318 36-218); experiment: as above
# T7 construct: numbering not explained
# T7 sequence (looked up): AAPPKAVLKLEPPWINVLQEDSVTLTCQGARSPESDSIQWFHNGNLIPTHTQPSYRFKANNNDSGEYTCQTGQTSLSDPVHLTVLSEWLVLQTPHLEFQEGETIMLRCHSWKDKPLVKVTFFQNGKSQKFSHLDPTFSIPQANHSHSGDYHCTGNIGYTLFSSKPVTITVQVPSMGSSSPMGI
# Description: as §3
# [11] = target: T8, human CD16a 176V (human, UniProt P08637 17-208); experiment: as above
# T8 construct: Allelic variant named only as '176V'; numbering not explained
# T8 sequence (P08637 17-208 F176V limits assumed): as the sequence (P08637 17-208 limits assumed) above, with F160V counted along it
# Description: as §3
# [12] = target: T1, hOX40L added as soluble protein in cell …; experiment: cell-based or functional assay; remark: listed apart in the source
# [13] = target: cynomolgus FcRn (cynomolgus, UniProt Q8SPV9 24-297; Q8SPW0 21-119); experiment: SPR (Biacore 8K+), antibody captured by anti-human kappa, cynomolgus FcRn injected, pH 5.8; pH 5.8
# Chain of cynomolgus FcRn (Q8SPV9 24-297 limits assumed, chain 1 of 2): as the sequence (P55899 24-297 limits assumed, form in doubt, chain 1 of 2) above, with N39D, E44Q, G99S, S189G, S190N, L217M, S269T counted along it
# Chain of cynomolgus FcRn (Q8SPW0 21-119 limits assumed, chain 2 of 2): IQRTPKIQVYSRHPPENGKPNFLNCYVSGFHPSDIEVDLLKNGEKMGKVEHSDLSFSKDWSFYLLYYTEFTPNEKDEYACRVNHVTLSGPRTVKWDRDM
# Description: as §1
# [14] = target: T9, Recombinant Human OX40L Protein, His Tag (Acro Cat. IL3-H52H4) (human, UniProt P23510 51-183); experiment: SPR (Biacore 8K), antibody captured, human OX40L injected, 1:1 fit
# T9 construct: Bought His-tagged protein; also called hOX40L
# T9 sequence: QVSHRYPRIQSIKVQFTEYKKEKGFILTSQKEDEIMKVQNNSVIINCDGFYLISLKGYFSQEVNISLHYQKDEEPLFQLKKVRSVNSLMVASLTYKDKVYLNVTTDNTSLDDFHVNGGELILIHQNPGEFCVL
# Description: as §2
# [15] = target: T10, C1q; experiment: SPR (Biacore 8K+), antibody captured by anti-human IgG Fc, C1q injected at 25 nM, mean response
# T10 construct: also called Clq
# T10 sequence (P02745 23-245, chain 1 of 3): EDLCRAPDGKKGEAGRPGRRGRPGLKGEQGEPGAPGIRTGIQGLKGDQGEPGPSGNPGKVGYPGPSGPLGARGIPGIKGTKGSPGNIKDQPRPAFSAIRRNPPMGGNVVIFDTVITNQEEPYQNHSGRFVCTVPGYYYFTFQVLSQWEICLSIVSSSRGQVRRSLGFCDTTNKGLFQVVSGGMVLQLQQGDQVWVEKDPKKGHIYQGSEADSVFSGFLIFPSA
# T10 sequence (P02746 28-253, chain 2 of 3, further chain): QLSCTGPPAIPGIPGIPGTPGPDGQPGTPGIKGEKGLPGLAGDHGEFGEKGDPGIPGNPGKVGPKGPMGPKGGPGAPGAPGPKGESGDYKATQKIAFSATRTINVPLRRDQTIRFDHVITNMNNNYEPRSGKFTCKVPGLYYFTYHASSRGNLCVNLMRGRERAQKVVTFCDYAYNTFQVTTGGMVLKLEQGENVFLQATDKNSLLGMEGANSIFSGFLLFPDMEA
# T10 sequence (P02747 29-245, chain 3 of 3, further chain): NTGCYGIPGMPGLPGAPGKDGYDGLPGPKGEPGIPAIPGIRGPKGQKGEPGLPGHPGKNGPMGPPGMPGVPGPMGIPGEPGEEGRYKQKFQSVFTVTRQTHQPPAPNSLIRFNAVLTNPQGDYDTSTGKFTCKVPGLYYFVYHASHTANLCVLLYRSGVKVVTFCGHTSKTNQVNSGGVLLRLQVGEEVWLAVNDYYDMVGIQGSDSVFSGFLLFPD
# Description: as §3
# [16] = target: T11, biotinylated hOX40L (human, UniProt P23510 51-183, limits assumed, biotinylated (sites not given)); experiment: blocking ELISA: biotinylated hOX40L preincubated with titrated antibody, added to coated hOX40-Fc, Extravidin-HRP
# T11 construct: construct not described
# T11 sequence: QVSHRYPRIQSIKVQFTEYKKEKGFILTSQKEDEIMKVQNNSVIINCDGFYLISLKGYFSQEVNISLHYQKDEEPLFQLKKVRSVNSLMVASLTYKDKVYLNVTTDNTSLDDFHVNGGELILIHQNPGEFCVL
binder,measurement,setting,value
"anti-hOX40L antibody clone 114 (antibody, human IgG1, kappa, L234A L235A) heavy: EVQVVESGGGLVQPGGSLRLSCAASGFTFSNYAMTWVRQSPGKGLEWVSLISGSGGLTKYADSVKGRFTISRDNSKKTLFLQMNSLRAEDTAAYYCVKDEGLTTGEYWGQGTQVTVSSASTKGPSVFPLAPSSKSTSGGTAALGCLVKDYFPEPVTVSWNSGALTSGVHTFPAVLQSSGLYSLSSVVTVPSSSLGTQTYICNVNHKPSNTKVDKKVEPKSCDKTHTCPPCPAPEAAGGPSVFLFPPKPKDTLYITREPEVTCVVVDVSHEDPEVKFNWYVDGVEVHNAKTKPREEQYNSTYRVVSVLTVLHQDWLNGKEYKCKVSNKALPAPIEKTISKAKGQPREPQVYTLPPSRDELTKNQVSLTCLVKGFYPSDIAVEWESNGQPENNYKTTPPVLDSDGSFFLYSKLTVDKSRWQQGNVFSCSVMHEALHNHYTQKSLSLSPG light: not shown","Donor 1 IC50, IL-2 release by pre-activated human CD4+ T cells with 20 ng/ml human OX40L",[1],1.25 nM
same,"Donor 2 IC50, IL-2 release by pre-activated human CD4+ T cells with 20 ng/ml human OX40L",[1],1.19 nM
same,"Donor 3 IC50, IL-2 release by pre-activated human CD4+ T cells with 20 ng/ml human OX40L",[1],1.18 nM
same,Kd,[2],141 nM
same,koff,[2],0.0471 s⁻¹
same,kon,[2],333000 M⁻¹ s⁻¹
same,Kd,[3],0.0336 nM
same,koff,[3],7.73e-05 s⁻¹
same,kon,[3],2.3e+06 M⁻¹ s⁻¹
same,EC50,[4],4.04 nM
same,binding result,[5],no binding (tested: 18 µM)
same,binding result,[6],no binding (tested: 8 µM)
same,binding result,[7],no binding (tested: 6 µM)
same,binding result,[8],no binding (tested: 12.5 nM)
same,binding result,[9],no binding (tested: 10 µM)
same,binding result,[10],no binding (tested: 8 µM)
same,binding result,[11],no binding (tested: 6 µM)
same,"IC50, luminescence (RLU), hOX40 reporter cells with 50 ng/mL hOX40L",[12],0.732 nM
same,Kd,[13],117 nM
same,koff,[13],0.0445 s⁻¹
same,kon,[13],381000 M⁻¹ s⁻¹
same,Kd,[14],0.106 nM
same,koff,[14],0.000114 s⁻¹
same,kon,[14],1.07e+06 M⁻¹ s⁻¹
same,RU at 25 nM C1q,[15],-4.8 RU
same,IC50,[16],1.12 nM

# From patent US20260217843A1 (APOGEE THERAPEUTICS, published 2026)
